This note sets out measurements from patent publication US20100015126A1, “Methods of Binding of Cross-Beta Structures By Chaperones” (priority 2006, published 2010).

The subject of test [1] is HUVECs. As to the kind of experiment: Adhesion of HUVECs to immobilized misfolded proteins under influence of BiP (LDH read-out). The class given is cell-based, human. The settings on record: BiP approximately 200 μg/ml. The procedure:
HUVECs are primary endothelial cells (ECs), isolated from umbilical cords using 0.1% collagenase (Sigma, C0130, 100 mg, dissolved in 100 ml M199 medium supplemented with 10% FCS (Gibco 10106-169) and Penicillin-Streptomycin (P/S, Gibco, 15140-122)), according to widespread used standard procedures known to a person skilled in the art. HUVECs have the typical features of ECs, e.g. cobblestone morphology and von Willebrand factor storage in Weibel-Palade bodies. HUVECs can regularly be cultured up to passage 5; beyond passage 5 HUVECs loose typical EC markers. The isolation is described here in brief. The umbilical cord is washed for less than 3 minutes in ethanol and subsequently with PBS. The vein is connected to canules and flushed with 10 ml PBS, followed by loading with the 0.1% collagenase solution. After a 15 minute-incubation at 37° C., the detached endothelial cell suspension is recovered by flushing the vein with 10 ml medium which is subsequently added to the collagenase solution. The EC suspension is centrifuged for 5 minutes at room temperature, at low g-force. Supernatant is discarded and the cell pellet is resuspended in 5 ml ‘rich medium’ (EGM-2; Endothelial basal medium (EBM-2, Cambrex, CC-3156) and Singlequots containing supplements for endothelial cells (Cambrex, CC-4176)). Cells (passage 0, P0) are seeded in a culture flask coated with 0.5% gelatin (Sigma, G1393). To facilitate the adhesion of the endothelial cells, human fibronectin is added to the cell culture at a final concentration of 2 μg/ml. EC's are cultured at 37° C., at 5% CO2. The cell culture medium is refreshed every 2-3 days up to when the cells grow to confluency. Then, with the addition of trypsin-EDTA, the cells are detached from the flask, centrifuged at low g-force, resuspended in rich medium and seeded in larger 0.5% gelatin-precoated cell culture flasks.
In 96-wells plates (Immulon high-binding plates, Thermo Labsystems 3355) proteins, i.e. BSA-AGE, control BSA, IgIV Gammagard, crossbeta dIgIV-86 at 5 μg/ml, 10 μg/ml misfolded oxLDL, or gelatin (Sigma G1393, 2% solution in H2O or PBS, positive control for adhesion to ECs) were coated using 100 μl solutions, in six wells for each condition. Following incubation for 2 hours at 37° C. the solutions were discarded and the wells blocked for 1 hour at 37° C. with 100 μl/well of 1% polyvinyl-pyrrolidone (PVP, Sigma P5288) in PBS, filter (0.22 μm) sterilized. […] Subsequently, the block solution was discarded. Next, the plates were incubated with 40 μl RPMI 1640 medium (Gibco, 52400) and 10 μl of the potential inhibitor, i.e. recombinant human BiP at approximately 200 μg/ml final concentration. HUVECs were obtained by trypsinization. […] The absorbance at 490 nm was measured on a Versamax microplate reader at various time points.

Test [2] has as its target T1, factor XII in plasma (Homo sapiens, UniProt P00748).
T1 construct: from tissue; host or cells: plasma
T1 sequence (P00748 20-615): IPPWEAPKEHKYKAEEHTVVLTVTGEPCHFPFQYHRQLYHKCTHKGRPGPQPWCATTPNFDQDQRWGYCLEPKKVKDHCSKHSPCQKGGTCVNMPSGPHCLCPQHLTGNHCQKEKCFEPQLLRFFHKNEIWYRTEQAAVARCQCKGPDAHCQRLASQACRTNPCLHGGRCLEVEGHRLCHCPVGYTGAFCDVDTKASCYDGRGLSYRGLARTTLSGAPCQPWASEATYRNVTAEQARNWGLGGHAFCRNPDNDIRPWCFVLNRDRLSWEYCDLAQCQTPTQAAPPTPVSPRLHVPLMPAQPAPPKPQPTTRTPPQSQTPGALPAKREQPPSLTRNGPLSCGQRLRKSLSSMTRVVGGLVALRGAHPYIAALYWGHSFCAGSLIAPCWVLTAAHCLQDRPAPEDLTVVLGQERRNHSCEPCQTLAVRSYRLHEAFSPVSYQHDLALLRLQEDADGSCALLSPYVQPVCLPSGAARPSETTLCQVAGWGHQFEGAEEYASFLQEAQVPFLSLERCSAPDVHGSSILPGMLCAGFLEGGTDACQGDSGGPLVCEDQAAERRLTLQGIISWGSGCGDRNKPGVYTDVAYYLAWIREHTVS
Nature of the test: Factor XII activation assay (direct, substrate S-2222). The note with it: chromogenic substrate S-2222. The format is biochemical. The procedure: Alternatively, activation of factor XII was assessed directly by omitting prekallikrein and using a factor XII chromogenic substrate, S-2222 (Chromogenix, Italy).

Test [3] has as its target T2, human BiP (Homo sapiens, UniProt P11021).
T2 construct: The human BiP gene except the signal peptide encoding region was obtained from Geneart (Germany); linker […]; made in house; host or cells: HEK 293E cells, transient transfection, PABC674 vector; secreted into the medium
As to the kind of experiment: ELISA: binding of BiP-FLAG-His to immobilized (misfolded) protein ligands. The settings on record: ligands coated at 5 μg/ml; 6BB peptides and oxLDL 50 μg/ml. Summed up:
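Ligands were coated at 5 μg/ml (50 μg/ml for 6BB# peptides and oxLDL) in 50 mM NaHCO3 pH 9.6, blocked, then incubated in triplicate with BiP-FLAG-His dilution series for 1 h at room temperature. Bound BiP was detected with peroxidase anti-FLAG M2 and TMB, stopped after 5 min and read at 450 nm. Buffer-only and chaperone-omitted background signals were subtracted.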
Background: In an ELISA, binding on a coated surface is turned into a signal by an enzyme label.

T2 sequence (P11021 19-654): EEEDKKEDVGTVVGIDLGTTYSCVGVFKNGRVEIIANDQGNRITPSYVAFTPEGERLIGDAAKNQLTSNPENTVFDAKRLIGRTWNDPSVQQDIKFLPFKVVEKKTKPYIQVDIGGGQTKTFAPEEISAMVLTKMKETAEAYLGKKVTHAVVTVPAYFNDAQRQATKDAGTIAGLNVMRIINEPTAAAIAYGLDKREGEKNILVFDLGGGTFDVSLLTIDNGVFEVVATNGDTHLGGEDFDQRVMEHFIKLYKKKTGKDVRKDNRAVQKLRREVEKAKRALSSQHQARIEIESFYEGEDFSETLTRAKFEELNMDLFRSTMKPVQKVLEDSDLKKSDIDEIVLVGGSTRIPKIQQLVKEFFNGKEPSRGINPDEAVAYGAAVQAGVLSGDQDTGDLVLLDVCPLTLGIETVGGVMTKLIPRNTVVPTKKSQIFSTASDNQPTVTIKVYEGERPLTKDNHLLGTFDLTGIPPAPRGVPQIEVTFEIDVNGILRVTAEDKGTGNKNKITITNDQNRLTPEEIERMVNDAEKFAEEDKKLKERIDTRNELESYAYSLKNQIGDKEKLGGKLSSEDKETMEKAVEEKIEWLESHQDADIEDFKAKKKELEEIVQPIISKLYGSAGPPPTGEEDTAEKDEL

For the substance gelatin, the “Number of adhered HUVECs after preincubation of coated protein with BiP” value in test [1] is reported as “hardly increase”.
On to “KRLEVDIDIKIRS [FP13, synthetic fibrin fragment comprising crossbeta structure]”, for which the “Activation of factor XII in plasma (conversion of S-2222)” value in test [2] is given as “stimulates the conversion of S-2222”. Besides, the “Binding of concentration series of BiP to coated ligand” value in test [3] was “has been established”.
